T1: human ICOS protein (human, UniProt Q9Y6W8 21-140)
T1 sequence (looked up): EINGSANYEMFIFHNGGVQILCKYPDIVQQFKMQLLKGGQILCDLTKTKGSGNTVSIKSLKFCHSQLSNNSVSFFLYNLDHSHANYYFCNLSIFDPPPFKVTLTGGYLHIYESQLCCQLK

T2: mouse PD-1 expressed on CHO-S cells (mouse, UniProt Q02242 25-288)
T2 construct: whole, on cells; also called cell surface mouse PD-1; mPD-1
T2 sequence (looked up): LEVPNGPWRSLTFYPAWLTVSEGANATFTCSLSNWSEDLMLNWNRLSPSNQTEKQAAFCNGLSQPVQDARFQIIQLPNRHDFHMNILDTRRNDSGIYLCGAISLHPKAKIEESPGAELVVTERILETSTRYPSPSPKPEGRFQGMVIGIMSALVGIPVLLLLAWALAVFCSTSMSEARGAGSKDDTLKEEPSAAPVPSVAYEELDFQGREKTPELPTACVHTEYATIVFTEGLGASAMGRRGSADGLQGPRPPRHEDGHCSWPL


Tests used:
human ICOS protein = target: T1, human ICOS protein; assay: protein-based ELISA, coated human ICOS, hybridoma supernatant
Procedure: (§1) Human PD-1, CD28, CTLA-4, ICOS, and BTLA proteins were coated in 96-well plates (Nunc) overnight at 4° C. […] After washing, a secondary antibody was added and incubated at 37° C. for 2 hours. […] After washing, TMB substrate (abcam) was added, and the color reaction was stopped with STOP solution (abcam). Absorbance at 450/650 nm was measured using a microplate reader (ThermoFisher).

human BTLA protein = human BTLA protein (human, UniProt Q7Z6A9 31-157, limits assumed); assay: protein-based ELISA, coated human BTLA, hybridoma supernatant
Procedure: as §1

[1] = target: T3, human PD-1 expressed on CHO-S cells (human, UniProt Q15116 25-288); assay: cell-based ELISA on CHO-S cells expressing human PD-1; EC50 against Keytruda and Opdivo
T3 construct: CHO-S cells transfected with pCMV3-C-FLAG vector (Sino) holding human PD-1 cDNA; also called cell surface human PD-1; hPD-1
Procedure: (§2) To summarize the ELISA analysis, 10,000 CHO-S cells expressing either human PD-1 or mouse PD-1 were coated in a collagen-coated 96-well plate (Thermo scientific) overnight in an incubator at 37° C. The coated cells were fixed with 8% paraformaldehyde at room temperature for 15 minutes.
(§3) After washing, a secondary antibody was added and incubated overnight at 4° C. […] After washing, TMB substrate (abcam) was added, and the color reaction was stopped with STOP solution (abcam). Absorbance at 450/650 nm was measured using a microplate reader (ThermoFisher).

human CTLA-4 protein = human CTLA-4 protein (human, UniProt P16410 36-161); assay: protein-based ELISA, coated human CTLA-4, hybridoma supernatant
Procedure: as §1

[2] = target: T2, mouse PD-1 expressed on CHO-S cells; assay: cell-based ELISA on fixed CHO-S cells expressing mouse PD-1, hybridoma supernatant
Procedure: (§4) To summarize the ELISA assay, 10,000 CHO-S cells expressing human or mouse PD-1 were coated in collagen-coated 96-well plates (ThermoFisher) overnight at 37° C. The coated cells were fixed with 8% paraformaldehyde at room temperature for 15 minutes. […] After washing, secondary antibody was added and incubated overnight at 4° C. […] After washing, TMB substrate (abcam) was added, and the color reaction was stopped with STOP solution (abcam). Absorbance at 450/650 nm was measured using a microplate reader (ThermoFisher).

human CD28 protein = human CD28 protein (human, UniProt P10747 19-152); assay: protein-based ELISA, coated human CD28, hybridoma supernatant
Procedure: as §1

[3] = target: T3, human PD-1 expressed on CHO-S cells; assay: cell-based ELISA on CHO-S cells expressing human PD-1
Procedure: as §2, §3

[4] = target: T3, human PD-1 expressed on CHO-S cells; assay: cell-based ELISA on fixed CHO-S cells expressing human PD-1, hybridoma supernatant
Procedure: as §4

[5] = target: T2, mouse PD-1 expressed on CHO-S cells; assay: cell-based ELISA on CHO-S cells expressing mouse PD-1
Procedure: as §2, §3

human PD-1 protein = target: T4, human PD-1 protein (human, UniProt Q15116 25-167, limits assumed); assay: SPR, Biacore 8K, antibody captured by anti-human IgG on CM5, human PD-1 as analyte
T4 construct: also called human PD-1 antigen
Procedure: Anti-human IgG antibody was immobilized on a CM5 chip (Cytiva) via amine coupling. […] Human PD-1 and running buffer at a concentration of 0-100 nM (0, 6.25, 12.5, 25, 50, 100 nM) were flowed onto the sensor chip at a flow rate of 30 μl/min for an association phase of 120 s, which was followed by a dissociation phase of 900 s. The chip was regenerated with glycine at pH 1.5 after each experiment. Association and dissociation curves were drawn using Cytiva evaluation software, and kinetics and affinity values were determined.

[6] = target: T5, human PD-1 with I126 mutated to alanine (human, UniProt Q15116 25-288, limits assumed); assay: alanine scanning, high-throughput flow cytometry
T5 construct: Alanine scanning mutant, expressed and analysed by high-throughput flow cytometry; the construct is not described further
Excerpt: (§5) Selected amino acid residues of PD-1 were mutated to alanine using PCR mutagenesis.

[7] = target: T6, human PD-1 with P130 mutated to alanine (human, UniProt Q15116 25-288, limits assumed); assay: alanine scanning, high-throughput flow cytometry
T6 construct: Alanine scanning mutant, expressed and analysed by high-throughput flow cytometry; the construct is not described further
Excerpt: as §5

[8] = target: T7, human PD-1 with L128 mutated to alanine (human, UniProt Q15116 25-288, limits assumed); assay: alanine scanning, high-throughput flow cytometry
T7 construct: Alanine scanning mutant, expressed and analysed by high-throughput flow cytometry; the construct is not described further
Excerpt: as §5

T3 sequence (Q15116 25-288 limits assumed): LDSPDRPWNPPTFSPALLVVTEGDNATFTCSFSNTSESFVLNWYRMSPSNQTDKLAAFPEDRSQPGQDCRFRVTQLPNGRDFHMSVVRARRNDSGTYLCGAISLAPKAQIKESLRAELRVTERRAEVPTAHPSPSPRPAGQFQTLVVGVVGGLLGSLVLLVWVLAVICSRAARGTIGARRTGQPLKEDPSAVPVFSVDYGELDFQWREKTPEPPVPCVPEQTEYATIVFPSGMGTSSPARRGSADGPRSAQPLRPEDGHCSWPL
T4 sequence (Q15116 25-167 limits assumed): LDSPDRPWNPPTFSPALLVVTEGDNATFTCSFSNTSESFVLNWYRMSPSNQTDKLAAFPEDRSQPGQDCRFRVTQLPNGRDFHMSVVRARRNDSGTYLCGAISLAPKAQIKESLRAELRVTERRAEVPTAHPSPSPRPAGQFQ
T6 sequence (Q15116 other isoform, or with tags, fused parts or gaps limits assumed, change not shown): as the sequence (Q15116 25-288 limits assumed) above, with P106A counted along it
T5 sequence (Q15116 other isoform, or with tags, fused parts or gaps limits assumed, change not shown): as the sequence (Q15116 25-288 limits assumed) above, with I102A counted along it
Chain of human CTLA-4 protein (P16410 36-161 limits assumed): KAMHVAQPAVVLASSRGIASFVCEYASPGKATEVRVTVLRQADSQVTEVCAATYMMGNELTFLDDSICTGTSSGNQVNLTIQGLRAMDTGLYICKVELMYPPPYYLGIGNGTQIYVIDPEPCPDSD
T7 sequence (Q15116 other isoform, or with tags, fused parts or gaps limits assumed, change not shown): as the sequence (Q15116 25-288 limits assumed) above, with L104A counted along it

Binder	binding result (human ICOS protein)	binding result (human BTLA protein)	fold improved binding activity compared to Keytruda and Opdivo [1] [fold]	binding result (human CTLA-4 protein)	EC50 (read off the curve) [2] [µg/mL]	binding result (human CD28 protein)	EC50 [3] [pM]	EC50 (read off the curve) [4] [µg/mL]	EC50 [5] [pM]	Kd (human PD-1 protein) [pM]	koff (human PD-1 protein) [s⁻¹]	kon (human PD-1 protein) [M⁻¹ s⁻¹]	binding activity relative to the wild-type antigen [6] [%]	binding activity relative to the wild-type antigen [7] [%]	binding activity relative to the wild-type antigen [8] [%]
hybridoma 1G1 antibody (antibody, V domains shown, Mouse antibody from the hybridoma, used as culture supernatant or Protein G purified; IgG1 reverse primer used for VH); also called 1G1 hybridoma antibody; monoclonal cell (hybridoma) 1G1 antibody) VH: EVQLQQSGAELVKPGASVKLSCKASGYTFTGYWMHWVKQRPGQGLEWIGMIHPNSDTTTYNEKFKNRATLTVDKSSGTAYMQLSSLTSEDSAVYYCTGTDQAAWFAFWGQGTLVTVSA VL: DIVLTQTPLSLPVSLGDQASISCRSSQNIVHSNGDTYLEWYLQKPGQSPKLLIYKVSKRFSGVPDRFSGSGSGTDFTLKISRVEAEDLGVYYCFQGSHVPWTFGGGTKLEIK	no binding	no binding	~5	no binding	~0.01	no binding	28.1	~0.01	31.7	–	–	–	–	–	–
chimeric 1G1 antibody (antibody, human IgG4 S228P, kappa, V domains shown, signal peptide not part of the entries; also called 1G1 chimeric; 1G1-chimeric) VH: EVQLQQSGAELVKPGASVKLSCKASGYTFTGYWMHWVKQRPGQGLEWIGMIHPNSDTTTYNEKFKNRATLTVDKSSGTAYMQLSSLTSEDSAVYYCTGTDQAAWFAFWGQGTLVTVSA VL: DIVLTQTPLSLPVSLGDQASISCRSSQNIVHSNGDTYLEWYLQKPGQSPKLLIYKVSKRFSGVPDRFSGSGSGTDFTLKISRVEAEDLGVYYCFQGSHVPWTFGGGTKLEIKR	–	–	–	–	–	–	–	–	–	3350	0.000749	223000	≤ 50	≤ 50	≤ 50

From patent US20240034796A1 (GENUV, published 2024)
